Data reported in publication PMC7721913 (The Journal of Cell Biology, 2020).

Molecular target: KLC1 TPR1-6 fragment (human KNS2 residues 205-501) (human, UniProt Q07866 205-501)
Test: ITC

Sequence of KLC1 TPR1-6 fragment (human KNS2 residues 205-501) (Q07866 205-501): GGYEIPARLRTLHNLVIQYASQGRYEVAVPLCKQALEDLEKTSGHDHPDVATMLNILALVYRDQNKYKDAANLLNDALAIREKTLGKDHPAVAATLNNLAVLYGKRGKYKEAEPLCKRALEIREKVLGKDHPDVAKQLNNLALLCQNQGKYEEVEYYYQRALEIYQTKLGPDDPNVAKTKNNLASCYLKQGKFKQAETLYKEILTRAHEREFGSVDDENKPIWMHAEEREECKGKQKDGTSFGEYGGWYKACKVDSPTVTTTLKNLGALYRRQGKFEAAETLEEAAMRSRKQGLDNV

ESEMEDAYHEHQANLLR [WT SFPQ peptide spanning the Y-acidic motif]
Kd: 3.83 ± 2.31 µM
dH: -2.05 ± 0.438 kcal/mol
stoichiometry N: 0.964 ± 0.143
